The record followed here is patent EP4755449A2 (CHUGAI SEIYAKU KABUSHIKI KAISHA, dated 2026).

Assay [1] addresses T1, human latent myostatin (human, UniProt O14793 25-266; O14793 267-375).
T1 construct: non-covalent complex of two propeptides and the mature homodimer; also called human myostatin latent form
T1 sequence 1: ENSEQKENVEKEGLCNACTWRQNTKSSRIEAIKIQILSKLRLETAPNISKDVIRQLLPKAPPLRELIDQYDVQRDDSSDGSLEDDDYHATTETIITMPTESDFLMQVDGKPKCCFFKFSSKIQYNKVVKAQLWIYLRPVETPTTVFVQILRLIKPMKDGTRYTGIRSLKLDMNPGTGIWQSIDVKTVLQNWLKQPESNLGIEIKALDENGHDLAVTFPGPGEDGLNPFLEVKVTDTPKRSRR
T1 sequence 2: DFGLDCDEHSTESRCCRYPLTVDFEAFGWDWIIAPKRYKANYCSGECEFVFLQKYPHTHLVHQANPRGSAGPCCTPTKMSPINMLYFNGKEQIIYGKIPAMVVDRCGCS
In words: SPR, dissociation phase at pH5.8. (In general: SPR reads the build-up and loss of mass on a sensor chip optically.)

Assay [2] concerns the target T1, human latent myostatin. In words: SPR, dissociation phase at pH5.8. This is another data set of the same source.
Assay [3] concerns the target T2, human Fc gamma RIIaR extracellular domain, His-tagged (human, UniProt P12318 34-217).
T2 construct: also called FcgRIIaR; human Fc gamma RIIa (type R)
T2 chain: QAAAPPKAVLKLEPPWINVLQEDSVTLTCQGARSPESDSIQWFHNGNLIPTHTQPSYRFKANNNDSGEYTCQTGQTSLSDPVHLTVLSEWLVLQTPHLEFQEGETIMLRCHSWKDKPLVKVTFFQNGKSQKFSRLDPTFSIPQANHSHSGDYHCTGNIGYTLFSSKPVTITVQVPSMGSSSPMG
In words: SPR 25C.

The target in assay [4] is T3, human Fc gamma RIIIaV extracellular domain, His-tagged (human, UniProt P08637 17-208).
T3 construct: also called FcgRIIIaV
T3 sequence (P08637 17-208 F176V): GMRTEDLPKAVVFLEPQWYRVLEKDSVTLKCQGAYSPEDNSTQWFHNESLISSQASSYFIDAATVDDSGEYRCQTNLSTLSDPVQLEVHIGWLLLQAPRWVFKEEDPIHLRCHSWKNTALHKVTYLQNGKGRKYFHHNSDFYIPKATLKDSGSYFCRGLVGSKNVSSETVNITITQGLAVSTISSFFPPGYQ
In words: SPR 25C.

B1: Ab002 (M103205H001/M103202L000) (antibody, V domains shown)
VH: QVTLKESGPVLVKPTETLTLTCTVSGIDLSHYDISWVRQAPGKGLEWVGIISYAGSTYYASWAKGRLTISKDTSKNQVVLTMTNMDPVDTATYYCARGVPAYSTGGDLWGQGTLVTVSS
VL: DIVMTQSPATLSLSPGERATLSCQSSQSVYDNNWLSWFQQKPGQPPKLLIYWASTLASGVPSRFSGSGSGTDFTLTISSLQPEDAATYYCAGGYGGGLYAFGQGTKVEIKR
notes: variant of MS1032LO00-SG1
Usually koff stands for the rate constant with which the complex falls apart. A lower koff goes with a long-lived complex. On to B1, for which, in the assay with human latent myostatin [1], the koff is 0.00609 s⁻¹. Further, the “fold faster dissociation rate at pH5.8 than Ab001” value with human latent myostatin [2] was determined as 200 fold.

B2: GpH7-B3 G237D/GpL16-k0 (antibody, human IgG1, kappa)
heavy: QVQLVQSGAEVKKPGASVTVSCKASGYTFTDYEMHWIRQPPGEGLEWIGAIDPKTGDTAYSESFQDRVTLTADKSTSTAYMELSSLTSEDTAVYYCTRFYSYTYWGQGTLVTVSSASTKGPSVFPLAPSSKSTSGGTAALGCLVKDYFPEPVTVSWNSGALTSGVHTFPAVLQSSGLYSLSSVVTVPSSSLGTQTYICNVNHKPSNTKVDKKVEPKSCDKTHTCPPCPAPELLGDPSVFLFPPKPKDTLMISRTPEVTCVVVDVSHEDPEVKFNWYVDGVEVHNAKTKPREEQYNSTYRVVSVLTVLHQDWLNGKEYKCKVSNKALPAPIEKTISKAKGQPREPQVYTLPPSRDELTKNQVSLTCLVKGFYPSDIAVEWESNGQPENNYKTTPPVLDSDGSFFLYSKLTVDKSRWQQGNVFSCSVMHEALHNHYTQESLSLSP
light: DIVMTQSPLSLPVTPGEPASISCQASESLVHSNRNTYLHWYLQKPGQSPQLLIYKVSNRFSGVPDRFSGSGSGTDFTLKISRVEAEDVGVYYCSQNTHVPPTFGQGTKVEIERTVAAPSVFIFPPSDEQLKSGTASVVCLLNNFYPREAKVQWKVDNALQSGNSQESVTEQDSKDSTYSLSSTLTLSKADYEKHKVYACEVTHQGLSSPVTKSFNRGEC
notes: copies: 2 + 2
B2: the relative binding in assay [3] and in assay [4] was 0 parent B3=100 throughout.
